The values that follow come from publication PMC4368098, “DICER-ARGONAUTE2 Complex in Continuous Fluorogenic Assays of RNA Interference Enzymes”.

This series concerns the target DICER;ARGONAUTE2 (AGO2) (human;human, UniProt Q9UPY3;Q9UKV8 1-1922;1-859, |). As to the kind of experiment: competition (fluorogenic siRNA processing); 80 nM BoPsi664, 30 nM each enzyme; Assay Buffer with 1 mM free Mg2+ (full composition not in the material), 37 C; indirect read-out by competitive inhibition of fluorogenic siRNA processing, no d. To be noted: protein: recombinant;recombinant, tags: C-terminal 6xHis with TEV site, tag removed by TEV;N-terminal 6xHis with TEV site.

The mark [1] stands for this setting: copies: 1;1, 3' overhang 2 nt on strand 1, other end blunt.
Setting [2] is: copies: 1;1, 3' overhang 2 nt on strand 2, other end blunt.

B1: D08 (dsRNA)
RNA 1: CCAGAAGAACUUUUAGGCCGCUCAAUU
RNA 2: UUGAGCGGCCUAAAAGUUCUUCUGG
Usually IC50 stands for the concentration needed to halve the response being measured. Turning to B1, under setting [1], the IC50 amounted to 1060 nM.

B2: D10 (dsRNA)
RNA 1: CCUGAGGAAGAACUAAAUCCAAAGAUA
RNA 2: UCUUUGGAUUUAGUUCUUCCUCAGG
In the case of B2, the concentration for half-maximal inhibition (IC50) under setting [1] is 633 nM.

B3: D12 (dsRNA)
RNA 1: UACUCAGGACACAGAUUUAGACUUGGA
RNA 2: CAAGUCUAAAUCUGUGUCCUGAGUA
For the molecule B3, the IC50 under setting [1] is 453 nM.

B4: D01 (dsRNA)
RNA 1: ACCGGUUGAAUCUUCAGAUAUGAAA
RNA 2: UUUCAUAUCUGAAGAUUCAACCGGUUU
In the case of B4, the IC50 under setting [2] turned out to be 56 nM.

B5: D05 (dsRNA)
RNA 1: GGAACAUGAUGGUUCACUUUUUCAA
RNA 2: UUGAAAAAGUGAACCAUCAUGUUCCAU
On to B5, for which the IC50 under setting [2] is 209 nM.

B6: D06 (dsRNA)
RNA 1: GGAUAGUGAUAUGGUCAAUGAAUUC
RNA 2: GAAUUCAUUGACCAUAUCACUAUCCAC
Regarding B6, the IC50 under setting [2] is 474 nM.

B7: D07 (dsRNA)
RNA 1: GGAUAAAAUUCUCAAUUCAGAGAAA
RNA 2: UUUCUCUGAAUUGAGAAUUUUAUCCAA
Take B7: the IC50 under setting [2] is 282 nM.

B8: D04 (dsRNA)
RNA 1: GUUCCUGAGGAAGAACUAAAUCCAA
RNA 2: UUGGAUUUAGUUCUUCCUCAGGAACUG
As to B8, the IC50 under setting [2] was 180 nM.

B9: D09 (dsRNA)
RNA 1: CAGACACCUAGUCCUUCCGAUGGAAGC
RNA 2: UUCCAUCGGAAGGACUAGGUGUCUG
For B9, the IC50 under setting [1] stood at 767 nM.

B10: D03 (dsRNA)
RNA 1: CCGGUUGAAUCUUCAGAUAUGAAAA
RNA 2: UUUUCAUAUCUGAAGAUUCAACCGGUU
For B10, the IC50 under setting [2] was found to be 150 nM.

B11: D11 (dsRNA)
RNA 1: ACCUGAGCCUAAUAGUCCCAGUGAAUA
RNA 2: UUCACUGGGACUAUUAGGCUCAGGU
As for B11, under setting [1], the IC50 came to 364 nM.

B12: D02 (dsRNA)
RNA 1: GCUGAUUUGUGAACCCAUUCCUCAC
RNA 2: GUGAGGAAUGGGUUCACAAAUCAGCAC
B12: the IC50 under setting [2] came to 142 nM.

B13: D25 (dsRNA)
RNA 1: GCACCCCCACCUCUGGACUUGCCUUUC
RNA 2: AAGGCAAGUCCAGAGGUGGGGGUGC
Regarding B13, the IC50 under setting [1] turned out to be 796 nM.
